Values belong to the molecule of their own block, whether it stands above or below them. Bridges are numbered along the chain shown (N, C = ends). Where no end group is shown, it is not given here. [ ]: non-standard residue; d: D form. Lac = C[C@H](O)C(=O)O
How the values were obtained:
[1] = target: T1, Neutravidin (Gallus gallus, UniProt P02701); experiment: Chromatographic comparison of cyclic depsipeptide and cyclic peptide resins on column; conditions: Toyopearl resin column, binding PBS pH 7.4, elution 0.2M Glycine pH 2.5, absorbance 280 nm
Experimental: Thirty-five milligrams of cyclo[Lac-A-DRASPY-E]-Toyopearl resin and cyclo[A-A-DRASPY-E]-Toyopearl (SEQ ID NO:21, 29) resin were packed in a 30 mm×2.1 mm I.D. Microbore column (0.1 mL) and swollen with 20% v/v methanol. One hundred microliters of feed sample, namely Neutravidin 5 mg/mL in PBS pH 7.4, was loaded onto the column at a flow rate of 0.05 mL/min (87 cm/h). The column was washed with 2 mL of equilibration buffer at a flow rate of 0.2 mL/min (348 cm/h). Elution was then performed with 4 mL of 0.2M glycine buffer pH 2.5 at the flow rate of 0.4 mL/min (696 cm/h). Cleaning and regeneration were performed by 4 mL of 0.85% phosphoric acid. The effluent was monitored by absorbance at 280 nm. Fractions were collected and concentrated five times by centrifugation at 4° C., 20817×g for 30 min using an Amicon® Ultra centrifugal filter (3000 MWCO, Ultracel®, Millipore, Billerica, Mass., USA).
Cyclic depsipeptides are present in nature as very selective ligands and enzyme substrates. In many cases, however, the depside (ester) bond is found to play an active role in their biological activity and the homodetic cyclic peptide version of the same sequence can partially or completely loose the target affinity. […]

[2] = target: T1, Neutravidin; experiment: Screening simulation by the Mondorf-Carbonell radiological procedure with 14C-radiolabeled Neutravidin; type: binding; conditions: 10 mg of 50:50 mix of ligand resin and negative control resin, PBS, 5% 14C-radiolabeled Neutravidin, washed with PBS 0.2M NaCl 0.1% Tween 20, film five days
Description: A solid phase library of reversible cyclic peptides synthesized as explained in sections 5.2 and 5.3 can be screened for on-bead ligands that bind to a target biological. […] The selected beads are then subjected to the alkaline treatment reported in section 5.7. See Mondorf and Carbonell 1998.
Neutravidin was radiolabeled according to the procedure reported by Mondorf et al. using ^14C formaldehyde by reductive amination. The prospected extent of radiolabeling was 5%. Mondorf Carbonell 1998.
Two aliquots of cyclo[Lac-A-DRASPY-E]-HMBA-ChemMatrix resin and cyclo[Lac-A-VVWVV-E]-HMBA-ChemMatrix (SEQ ID NO:20-21) resin and were mixed in a 50:50 proportion. 10 mg of the resin mix was swollen in 20% methanol in water for 30 min and then rinsed with PBS, pH 7.4 (3×5 min). The resin slur was then mixed with 200 μl of 5 mg/mL ^14C-labelled Neutravidin. After 2 hrs of incubation the supernatant was decanted and the resin was washed with PBS buffer containing 0.2M NaCl and 0.1% (w/v) Tween 20 until the radioactivity reached the baseline level. […]
(§1) The screening procedure followed the method set forth in sections 5.5 and 6.5. […] A volume of 250 mL of washing solution was necessary in order for the radioactivity to reach the baseline level. […] In both cases, the difference between the levels of radioactivity carried by the resin was enough to discriminate the ligand resin beads from the negative control beads.

[3] = target: T2, Neutravidin (UniProt P02701 25-152); experiment: radiological on-bead screening (autoradiography of beads in agarose)
T2 construct: In the bead screening it was radiolabelled with 14C formaldehyde by reductive amination (prospected extent 5%); In the column runs it was unlabelled, 5 mg/mL in PBS pH 7.4; also called 14C-labelled Neutravidin; target protein
Experimental: Two aliquots of cyclo[Lac-A-DRASPY-E]-HMBA-ChemMatrix resin and cyclo[Lac-A-VVWVV-E]-HMBA-ChemMatrix (SEQ ID NO:20-21) resin and were mixed in a 50:50 proportion. 10 mg of the resin mix was swollen in 20% methanol in water for 30 min and then rinsed with PBS, pH 7.4 (3×5 min). The resin slur was then mixed with 200 μl of 5 mg/mL ¹⁴C-labelled Neutravidin. After 2 hrs of incubation the supernatant was decanted and the resin was washed with PBS buffer containing 0.2M NaCl and 0.1% (w/v) Tween 20 until the radioactivity reached the baseline level. The washed resin was then mixed with 20 mL of 1% low melting agarose solution. The mixture was swirled to form a uniform suspension and then the slurry was poured on 16×18 cm gelbond film to form a monolayer of beads. This gel was air-dried overnight in a hood. The dried agarose gel was then exposed to photographic film for 5 days at room temperature. The photographic film was then developed, the dark spot located on the film and the corresponding beads selected.
as §1

T1 sequence (P02701 25-152): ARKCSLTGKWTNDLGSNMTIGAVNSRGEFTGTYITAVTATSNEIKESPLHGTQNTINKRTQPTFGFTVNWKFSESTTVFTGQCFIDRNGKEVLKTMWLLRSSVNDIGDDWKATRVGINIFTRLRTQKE
T2 sequence (P02701 25-152): as above

Molecule: cyclo[A-A-DRASPY-E] (AADRASPYE-{Toyopearl AF‑Amino‑650M resin}; lactam N-9; not fully specified; printed as cyclo[A-A-DRASPY-E]) [cyclo[A-A-DRASPY-E]-Toyopearl, homodetic cyclic peptide analogue of DRASPY depsipeptide on Toyopearl resin]
binding chromatogram, cyclic depsipeptide vs cyclic peptide version of the same ligand sequence (FIG. 35) [1]: no difference

Molecule: cyclo[Lac-A-DRASPY-E] [cyclo[Lac-A-DRASPY-E]-HMBA-ChemMatrix]
amount of radiolabeled target protein bound by resin beads (dark spot on developed radiographic film) [2]: bound a sufficient amount of radiolabeled target protein to impress a dark spot

Molecule: cyclo[Lac-A-VVWVV-E] ([Lac]AVVWVVE; bridge N-8; not fully specified (C-terminus, bridges); printed as cyclo[Lac-A-VVWVV-E]) [cyclo[Lac-A-VVWVV-E]-HMBA-ChemMatrix]
amount of radiolabeled target protein bound by resin beads (dark spot on developed radiographic film) [2]: bound a sufficient amount of radiolabeled target protein to impress a dark spot

More lines, now with the values ahead:

binding chromatogram, cyclic depsipeptide vs cyclic peptide version of the same ligand sequence (FIG. 35) [1]: no difference
Molecule: cyclo[Lac-A-DRASPY-E] [cyclo[Lac-A-DRASPY-E]-Toyopearl]

binding result [3]: no binding
B1: cyclo[Lac-A-VVWVV-E] (peptide)
peptide: [Lac]AVVWVVE
modifications: bridge N-8; not fully specified (C-terminus, bridges); printed as cyclo[Lac-A-VVWVV-E]
notes: also called cyclo[Lac-A-VVWVV-E]-HMBA-ChemMatrix; negative control resin

From patent US20130310265A1, “METHODS OF PREPARING CYCLIC PEPTIDES AND USES THEREOF” (NORTH CAROLINA STATE UNIVERSITY, priority 2012, published 2013)
